Experimental data from patent publication US9617326B2, “RTRAIL mutant and monomethyl auristatin E conjugate thereof” (Zhejiang University, priority 2012, dated 2017).
Where two headings read alike, the source gives them in different places.

Assays:
[1] = system: Hela cells; assay: In vitro anti-tumor activity (CCK-8 killing) on Hela cells; format: cell-based; conditions: Hela (TRAIL insensitive type), 32-1000 ng/mL, both low and high concentrations, 96 hours, FIG. 6
From the text: (§1) 4 types of cells were selected to measure in vitro anti-tumor activity of the rTRAIL mutant and the MMAE conjugate: TRAIL sensitive type (NCI-H460), TRAIL insensitive type (Hela), TRAIL resistant type (MCF-7) and normal cells (HEK293). All of these 4 types of cells had TRAIL death receptor on their surfaces.
(§2) Hereinafter, TRAIL sensitive type NCI-H460 cell was taken as an example to give detailed description of the test procedure, including the following steps:
(§3) (1) Digesting the NCI-H460 cells into individual cells, followed by diluting to 1×10^4 cells/mL, spreading the cells on 96-well plate (100 μL for each well), and culturing the cells for 24 hours under normal condition.
(§4) (2) Diluting N109C, N109C-vcMMAE and S96C-vcMMAE with culture medium respectively, and adding them into the cell plate with final concentrations of 32, 63, 125, 250, 500, 1000 ng/mL for serving as the test groups, while using standard TRAIL (114-281) as the positive control group, using the buffer (used for dissolving the test sample, diluted with the culture medium in a same manner) as the negative control group, and using the culture medium (without adding any solution) as the blank control group. All the control groups and test groups were tested in triplicate. […]

[2] = system: MCF-7 cells; assay: In vitro anti-tumor activity (CCK-8 killing) on MCF-7 cells; format: cell-based; conditions: MCF-7 (TRAIL resistant type), 32-1000 ng/mL, both low and high concentrations, 96 hours, FIG. 6
From the text: as §1, §2, §3, §4

[3] = system: NCI-H460 cells; assay: Cell endocytosis of the conjugate by tumor cells (laser confocal); format: cell-based; conditions: 1 μg/mL
Procedure: NCI-H460 cells were taken as an example to observe behaviors of rTRAIL mutant-vcMMAE conjugate in tumor cells by laser confocal technology, including the following steps:
a) A coverslip was immersed with 1M HCl and 70% ethanol, subjected to ultrasonic treatment for 30 min, washed for 5-6 times with double distilled water and sterilized for later use;
b) Well-sterilized coverslip was placed in 24-well plate, and cells were plated at 10^4 cells/well and cultured overnight at 37° C.;
c) Administration: N109C-vcMMAE and S96C-vcMMAE were diluted respectively to a final concentration of 1 μg/mL, and the cells were treated according to step d) at different time points (1st, 4th, 8th and 12th hour), while drug-free culture medium was used for the blank control group; d) The coverslip was washed with cold PBS for 3 times and then fixed with 4% paraformaldehyde for 10 min at room temperature; e) PBS was used to wash the coverslip for another 3 times; f) 0.1% Triton X-100 was added to permeabilize for 10 min at room temperature; g) 2% BSA was added to block for 30 min after 3 times washing with PBS; h) Primary antibody incubation: rabbit anti-human rTRAIL polyclonal antibody was diluted with 1% BSA/PBS to 1 μg/mL and incubated for 45 min at room temperature; i) Secondary antibody incubation: FITC-labeled goat anti-rabbit secondary antibody was diluted 500-fold with 1% BSA/PBS and incubated for 45 min at room temperature; j) Staining cell nucleus with DAPI: after PBS washing (3 times), DAPI diluted 1000-fold with PBS was added dropwise on each coverslip (it was appropriate to just cover the cells), and the coverslip was incubated for about 2 min at 25° C.; k) Mounting: after PBS washing, one drop of Anti-fade Fluorescence Mounting Medium was added on the coverslip, then the coverslip was placed upside down on a glass slide and then sealed with nail polish around the coverslip; l) Cofocal detection: the detection result was shown in FIG. 8.

[4] = system: NCI-H460 tumor-bearing mice; conditions: athymic mice with NCI-H460 tumor; for distribution of fluorescence in mice: about 50 μg Cy5-labeled conjugate via tail vein
Procedure: N109C-vcMMAE was taken as an example, and the conjugate was tracked in real-time in mice by Fluorescent labeling method to observe tumor targeting ability of the conjugate.
Athymic mice weighing 20 g were selected and 10^7 NCI-H460 cells were injected subcutaneously in the armpit of one side of the forelegs.
Cy5, as a Near-IR-activated dye, was used as a fluorescent label, so as to facilitate the fluorescence to pass through animal skin and achieve the goal of real time vital observation. In terms of concrete method of Cy5 labeling, please refer to the instruction offered by the manufacturer (Lumiprobe).
200 μL sample containing about 50 μg Cy5-labeled conjugate was injected into the tumor-bearing mice via tail vein, while equal amount of normal saline was injected into the blank control group.
Small living animal imager (NightOWLN320) was used to observe distribution of fluorescence in mice every 24 hours. […] The mice were killed after 4th day, and heart, liver, spleen, lung, kidney and tumor tissues were isolated. […] The white arrow indicates tumor site.

B1: N109C-vcMMAE: rTRAIL N109C mutant trimer coupled via maleimide-modified valine-citrulline linker to 1-3 MMAE molecules (conjugate)
chain: TSEETISTVQEKQQCISPLVRERGPQRVAAHITGTRGRSNTLSSPNSKNEKALGRKINSWESSRSGHSFLSNLHLRNGELVIHEKGFYYIYSQTYFRFQEEIKENTKNDKQMVQYIYKYTSYPDPILLMKSARNSCWSKDAEYGLYSIYQGGIFELKENDRIFVSVTNEHLIDMDHEASFFGAFLVG
modifications: non-natural residues
notes: rTRAIL N109C mutant trimer coupled via maleimide-modified valine-citrulline linker to 1-3 MMAE molecules
killing ability [1]: stronger killing ability than S96C-vcMMAE | killing ability [2]: stronger killing ability than S96C-vcMMAE | endocytosis by tumor cells (confocal) ([3]; 1 hour after administration): a lot of N109C-vcMMAE had entered the cells | endocytosis by tumor cells (confocal) ([3]; 4 hours): more and more N109C-vcMMAE entered the cells and began to aggregate slowly | endocytosis by tumor cells (confocal) ([3]; 8 hours): more aggregating points emerging inside the cells | endocytosis by tumor cells and apoptosis (confocal) ([3]; 12 hours): aggregating points inside the cells decreased gradually and cell apoptosis began to occur | distribution of fluorescence in mice ([4]; 3rd day): most of the fluorescence had gathered on tumor site | distribution of fluorescence in mice ([4]; 4th day): only the tumor site emitted fluorescence | tumor-targeting effect ([4]; in vivo imaging over 4 days and isolated tissues): excellent tumor-targeting effect
